Source: patent US20060253917A1 (published 2006)

T1: OsMADS1 aa 74-172 (Oryza sativa, UniProt A2XDY1 74-172)
T1 construct: prey, AD fusion; also called PN19788
T1 sequence: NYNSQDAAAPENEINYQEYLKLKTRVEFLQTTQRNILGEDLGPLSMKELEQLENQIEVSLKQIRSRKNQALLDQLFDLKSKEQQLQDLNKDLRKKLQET

T2: OsMADS1 aa 95-254 (Oryza sativa, UniProt A2XDY1 95-254)
T2 construct: prey, AD fusion; also called PN19788
T2 sequence: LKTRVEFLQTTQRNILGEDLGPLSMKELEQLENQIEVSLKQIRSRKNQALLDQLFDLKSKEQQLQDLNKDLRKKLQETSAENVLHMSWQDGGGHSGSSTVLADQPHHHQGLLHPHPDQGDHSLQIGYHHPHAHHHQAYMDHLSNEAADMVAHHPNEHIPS

T3: OsMADS45 aa 120-249 (Oryza sativa, UniProt P0C5B0 120-249)
T3 construct: prey, AD fusion; also called PN20231
T3 sequence: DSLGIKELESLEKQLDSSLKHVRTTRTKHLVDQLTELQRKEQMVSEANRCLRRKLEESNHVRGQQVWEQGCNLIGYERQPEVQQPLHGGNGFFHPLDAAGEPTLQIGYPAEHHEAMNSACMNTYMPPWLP

T4: OsFDRMADS6 aa 74-246 (Oryza sativa, UniProt P0C5B1 74-246)
T4 construct: prey, AD fusion; also called PN19766
T4 sequence: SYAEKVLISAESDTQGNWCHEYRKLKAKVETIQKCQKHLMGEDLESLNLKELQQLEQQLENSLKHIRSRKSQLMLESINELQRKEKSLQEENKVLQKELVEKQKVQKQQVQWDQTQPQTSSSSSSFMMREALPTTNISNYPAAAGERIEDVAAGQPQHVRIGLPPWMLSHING

T5: OsMADS17 aa 51-248 (Oryza sativa, UniProt Q7XUN2 51-248)
T5 construct: prey, AD fusion; also called PN20914
T5 sequence: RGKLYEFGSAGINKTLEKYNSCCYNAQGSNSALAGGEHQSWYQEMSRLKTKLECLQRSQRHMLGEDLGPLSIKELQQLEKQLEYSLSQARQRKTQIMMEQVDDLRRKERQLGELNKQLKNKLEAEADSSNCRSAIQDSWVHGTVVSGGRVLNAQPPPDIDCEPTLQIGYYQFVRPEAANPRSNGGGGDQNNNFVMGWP

T6: OsMADS8 aa 61-248 (Oryza sativa, UniProt Q9SAR1 61-248)
T6 construct: prey, AD fusion; also called PN20778
T6 sequence: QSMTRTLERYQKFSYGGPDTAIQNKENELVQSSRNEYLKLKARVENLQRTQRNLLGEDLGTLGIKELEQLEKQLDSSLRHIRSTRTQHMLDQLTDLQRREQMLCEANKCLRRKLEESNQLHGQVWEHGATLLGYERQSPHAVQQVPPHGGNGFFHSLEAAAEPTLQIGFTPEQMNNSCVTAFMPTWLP

T7: OsMADS45 aa 48-249 (Oryza sativa, UniProt P0C5B0 48-249)
T7 construct: prey, AD fusion; also called PN20231
T7 sequence: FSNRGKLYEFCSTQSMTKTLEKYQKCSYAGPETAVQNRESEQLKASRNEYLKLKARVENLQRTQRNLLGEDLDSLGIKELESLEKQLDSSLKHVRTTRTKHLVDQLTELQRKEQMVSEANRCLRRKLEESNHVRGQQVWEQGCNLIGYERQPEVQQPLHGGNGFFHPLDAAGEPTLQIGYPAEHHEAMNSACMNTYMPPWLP

T8: OsMADS8 aa 6-159 (Oryza sativa, UniProt Q9SAR1 6-159)
T8 construct: prey, AD fusion; also called PN20778
T8 sequence: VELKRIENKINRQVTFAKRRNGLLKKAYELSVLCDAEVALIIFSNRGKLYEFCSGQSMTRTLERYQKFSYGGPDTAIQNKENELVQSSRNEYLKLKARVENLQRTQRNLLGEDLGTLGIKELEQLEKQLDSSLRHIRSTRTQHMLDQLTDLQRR

T9: OsMADS8 aa 68-245 (Oryza sativa, UniProt Q9SAR1 68-245)
T9 construct: prey, AD fusion; also called PN20778
T9 sequence: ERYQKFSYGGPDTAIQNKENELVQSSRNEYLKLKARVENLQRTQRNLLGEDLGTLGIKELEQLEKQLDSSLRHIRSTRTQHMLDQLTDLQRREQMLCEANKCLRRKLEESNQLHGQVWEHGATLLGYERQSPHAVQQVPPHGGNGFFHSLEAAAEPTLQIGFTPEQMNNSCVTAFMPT

T10: OsMADS45 aa 2-214 (Oryza sativa, UniProt P0C5B0 2-214)
T10 construct: prey, AD fusion; also called PN20231
T10 sequence: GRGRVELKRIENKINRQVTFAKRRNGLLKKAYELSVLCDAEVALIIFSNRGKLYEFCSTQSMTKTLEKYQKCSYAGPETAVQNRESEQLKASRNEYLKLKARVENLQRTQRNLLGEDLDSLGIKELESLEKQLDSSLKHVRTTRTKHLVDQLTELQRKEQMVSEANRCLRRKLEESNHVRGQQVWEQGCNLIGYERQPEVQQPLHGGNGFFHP

T11: OsMADS45 aa 57-249 (Oryza sativa, UniProt P0C5B0 57-249)
T11 construct: prey, AD fusion; also called PN20231
T11 sequence: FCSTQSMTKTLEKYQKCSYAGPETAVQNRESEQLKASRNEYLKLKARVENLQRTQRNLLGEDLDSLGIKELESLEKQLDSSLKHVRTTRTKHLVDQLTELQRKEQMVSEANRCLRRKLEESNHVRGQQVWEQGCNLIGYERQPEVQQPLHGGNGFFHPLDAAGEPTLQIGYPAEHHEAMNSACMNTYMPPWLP

B1: OsMADS15 aa 100-235 (other)
chain: AKIETIQKCHKHLMGEDHESLNLKELQQLEQQLESSLKHIISRKSHLMLESISELQKKERSLQEENKALQKELVERQKNVRGQQQVGQWDQTQVQAQAQAQPQAQTSSSSSSMLRDQQALLPPQNICYPPVMMGER
notes: bait, Gal4 DBD fusion; also called PN20842
B2: OsPN29971 aa 1-108 (other)
chain: EKSDVQSTLEMELDRRSNDWSVKLAEFQSEEQRLRERVRELAEQNVSFQREVTLLESNRIDVSNKITSLELQNKQLNDELQKVKKEHDTLLKSSVELNDNLTKTAEGY
notes: prey, AD fusion; also called Novel protein PN29971, fragment, similar to A. thaliana centromere protein
B3: OsMADS5 aa 50-160 (other)
chain: TRGRLFEFSTSSCMYKTLERYRSCNYNLNSCEASAALETELSNYQEYLKLKTRVEFLQTTQRNLLGEDLVPLSLKELEQLENQIEISLMNIRSSKNQQLLDQVFELKRKEQ
notes: bait, Gal4 DBD fusion; also called PN20770
B4: OsMADS3 aa 70-170 (other)
chain: KKANSDTSNSGTVAEVNAQHYQQESSKLRQQISSLQNANSRTIVGDSINTMSLRDLKQVENRLEKGIAKIRARKNELLYAEVEYMQKREVELQNDNMYLRS
notes: bait, Gal4 DBD fusion; also called PN20700

Assays:
[1] = target: T1, OsMADS1 aa 74-172; experiment: Y2H; input trait library
Method in brief: (§1)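 Using an automated, high-throughput yeast two-hybrid assay provided by Myriad Genetics Inc. (Salt Lake City, Utah), protein-protein interactions were detected. Against either the input trait or the output trait rice prey library, a bait clone encoding a defined amino-acid fragment of a rice protein was screened. The encoding sequences of the prey clones that were retrieved were then compared against databases by BLAST to identify the interacting proteins.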

[2] = target: T2, OsMADS1 aa 95-254; experiment: Y2H; input trait library
Method in brief: as §1

[3] = target: T3, OsMADS45 aa 120-249; experiment: Y2H; output trait library
Method in brief: as §1

[4] = target: B1; experiment: Y2H; input trait library
Method in brief: as §1

[5] = target: T4, OsFDRMADS6 aa 74-246; experiment: Y2H; output trait library
Method in brief: as §1

[6] = target: T5, OsMADS17 aa 51-248; experiment: Y2H; output trait library
Method in brief: as §1

[7] = target: T6, OsMADS8 aa 61-248; experiment: Y2H; input trait library
Method in brief: as §1

[8] = target: T7, OsMADS45 aa 48-249; experiment: Y2H; input trait library
Method in brief: as §1

[9] = target: T8, OsMADS8 aa 6-159; experiment: Y2H; output trait library
Method in brief: as §1

[10] = target: T9, OsMADS8 aa 68-245; experiment: Y2H; output trait library
Method in brief: as §1

[11] = target: T10, OsMADS45 aa 2-214; experiment: Y2H; output trait library
Method in brief: as §1

[12] = target: T11, OsMADS45 aa 57-249; experiment: Y2H; output trait library
Method in brief: as §1

Binder: B1
binding result [1]: binds
binding result [2]: binds
binding result [3]: binds

Binder: B2
binding result [4]: binds

Binder: B3
binding result [5]: binds
binding result [6]: binds

Binder: B4
binding result [7]: binds
binding result [8]: binds
binding result [9]: binds
binding result [10]: binds
binding result [11]: binds
binding result [12]: binds
